# Values quoted from earlier work, collected in article PMC4191058.
# Molecular target: NS1 (Influenza A virus) (UniProt Q8QPI8)
substance,measurement,value
NS1 (from UniProt Q8QPI8),Kd,90 µM
